{"source": "paper PMC5662623", "key": {"adaptor protein AP-3": {"biological_target": "adaptor protein AP-3", "test": "GST pull-down from rat brain lysate, immunoblot band intensity quantification (anti-β-NAP)", "conditions": "at least three independent experiments; parent: est. 1.0; read off a plot"}, "adaptor protein AP-1": {"biological_target": "adaptor protein AP-1", "test": "GST pull-down from rat brain lysate, immunoblot band intensity quantification (anti-adaptin γ)", "conditions": "at least three independent experiments; parent: est. 1.0; read off a plot"}}}
{"substance": "GST fusion of the WT VGLUT2 C-terminus F518G; I519G", "values": [{"measurement": "ratio to parent", "setting": "adaptor protein AP-3", "result": 0.33}, {"measurement": "ratio to parent", "setting": "adaptor protein AP-1", "result": 0.59}]}
